In patent US20130115256A1, “METHODS FOR TREATING OR PREVENTING VASCULAR GRAFT FAILURE” (priority 2010, published 2013) one finds Percent Activity (radiometric kinase assay, peptide data, which are given here for one molecule.

The target of the assay is mitogen-activated protein kinase-activated protein kinase 2 (MK2), P49137. Description: cell-based or functional assay.

Where no end group is shown, it is not given here.

mitogen-activated protein kinase-activated protein kinase 2 (MK2), P49137, sequence (P49137 46-400): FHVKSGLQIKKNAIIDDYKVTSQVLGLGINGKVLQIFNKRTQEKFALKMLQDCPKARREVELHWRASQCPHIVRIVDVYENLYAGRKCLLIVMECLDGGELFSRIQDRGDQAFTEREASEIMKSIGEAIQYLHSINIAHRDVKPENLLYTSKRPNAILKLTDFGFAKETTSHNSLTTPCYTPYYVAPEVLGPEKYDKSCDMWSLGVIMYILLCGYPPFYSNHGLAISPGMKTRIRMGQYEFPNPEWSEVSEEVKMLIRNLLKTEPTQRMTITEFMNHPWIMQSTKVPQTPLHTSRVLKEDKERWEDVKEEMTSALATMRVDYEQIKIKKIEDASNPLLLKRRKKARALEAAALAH

For the molecule YARAAARQARAKALARQLGVAA (not fully specified (C-terminus)) [MMI-0100 (…; SEQ ID NO: 1)], the Percent Activity (radiometric kinase assay, peptide at 100 µM) was < 5 % activity.
